In patent US20260234255A1 (Genmab, published 2026):
Numbering of substitutions follows the chain as printed.

Columns and labels:
human CD30 [1] = target: T1, human CD30 (human, UniProt P28908 19-595); test: flow cytometry, SU-DHL-1 cells
T1 construct: also called huCD30; TNFRSF8
T1 sequence: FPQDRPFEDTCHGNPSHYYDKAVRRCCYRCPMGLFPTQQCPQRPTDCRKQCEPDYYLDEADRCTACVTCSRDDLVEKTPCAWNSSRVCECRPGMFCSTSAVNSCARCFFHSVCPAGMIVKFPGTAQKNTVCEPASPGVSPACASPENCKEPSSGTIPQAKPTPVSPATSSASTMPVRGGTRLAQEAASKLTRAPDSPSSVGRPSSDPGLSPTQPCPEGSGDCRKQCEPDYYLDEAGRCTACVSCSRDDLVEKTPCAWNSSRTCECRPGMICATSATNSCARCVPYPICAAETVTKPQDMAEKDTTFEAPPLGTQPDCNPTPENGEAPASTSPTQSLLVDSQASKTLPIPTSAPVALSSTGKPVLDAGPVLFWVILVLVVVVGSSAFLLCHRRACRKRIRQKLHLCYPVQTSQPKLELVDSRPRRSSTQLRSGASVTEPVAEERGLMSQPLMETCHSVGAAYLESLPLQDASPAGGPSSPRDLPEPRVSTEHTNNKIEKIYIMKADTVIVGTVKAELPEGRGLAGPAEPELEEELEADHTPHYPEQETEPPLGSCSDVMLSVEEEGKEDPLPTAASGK
How it was run: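 CD3×CD30 bispecific antibodies, serially diluted 3-fold from 10 to 0.0046 μg/mL, were incubated with 3×10⁴ cells/well at 4° C for 30 min, then with a secondary antibody at 4° C for 30 min. Live cells were gated by FSC/SSC and TO-PRO-3 exclusion, and curves were fitted by four-parameter sigmoidal regression.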

human CD30 [2] = target: T1, human CD30; test: flow cytometry, DL-40 cells (ALCL), average of 3 tests
Description: (§1) Cells (3×10⁴ cells/well) were incubated in polystyrene 96-well round-bottom plates (Greiner bio-one, cat. no. 650180) with serial dilutions of antibodies (range 0.0046 to 10 μg/mL in 3-fold dilution steps) in 50 μL staining buffer at 4° C. for 30 min. After washing twice in staining buffer, cells were incubated with 50 μL secondary antibody at 4° C. for 30 min. […] Next, cells were washed twice in staining buffer, resuspended in 100 μL staining buffer supplemented with TO-PRO-3 iodide (Thermo Fisher Scientific; cat. no. T3605; 1:8000 dilution) and analyzed on a FACSCelesta flow cytometer (BD Biosciences, USA). Live cells were gated based on FSC/SSC and absence of TOPRO-3 staining. Binding curves were analyzed by non-linear regression of log-transformed data (sigmoidal dose-response with variable slope, four parameters) using GraphPad Prism V7.02 software (GraphPad Software, San Diego, CA, USA).

complement protein C1q = target: T2, complement protein C1q (human, UniProt P02745 23-245; P02746 28-253; P02747 29-245); test: flow cytometry with FITC anti-C1q; antibody-opsonized activated human CD8+ T cells, 20% normal human serum as the source of C1q
T2 construct: 20% human serum was used as the source of C1q
Description: Activated CD8⁺ T cells were seeded in a round-bottom 96-well plate (30,000 cells/well), pelleted, and resuspended in 30 μL assay medium (RPMI-1640 with 25 mM HEPES and L-glutamine, supplemented with 0.1% [w/v] bovine serum albumin fraction V (BSA; Roche, cat. no. 10735086001) and penicillin/streptomycin).
Human serum (20 μL/well; Sanquin, lot 20L15-02), as a source of C1q, was added to a final concentration of 20%. Cells were incubated on ice for 45 min, followed by two washes with cold GMB FACS buffer and incubation with 50 μL fluorescein isothiocyanate (FITC)-conjugated rabbit anti-human C1q (final concentration of 20 μg/mL (DAKO, cat no. F0254); diluted 1:75 in GMB FACS buffer) in the presence or absence of allophycocyanin-conjugated mouse-anti-CD8 (BD Biosciences, cat. no. 555369; diluted 1:50 in GMB FACS buffer) in the dark at 4° C. for 30 min. […] C1q binding to viable cells (as identified by DAPI exclusion) was analyzed by flow cytometry on an iQue3 Screener (Intellicyt Corporation). Data were analyzed using iQue software (Intellicyt Corporation, ForeCyt® Enterprise Client Edition 6.2 [R3], Version 6.2.652).

human CD30 [3] = target: T1, human CD30; test: flow cytometry, L-82 cells (ALCL), average of 2 tests
Description: as §1

human CD30 [4] = target: T1, human CD30; test: flow cytometry, KI-JK cells (ALCL), average of 3 tests
Description: as §1

human CD30 [5] = target: T1, human CD30; test: flow cytometry, HEK293 cells transfected with human CD30
Description: Cells (3×10⁴ cells/well) were incubated in polystyrene 96-well round-bottom plates (Thermo Scientific, cat. no. 163320) with serial dilutions of antibodies (ranging from 0.0002 to 50 μg/mL in 4-fold dilution steps) in 50 μL staining buffer at 4° C. for 30 min. Experiments were performed in technical duplicate. After washing twice in staining buffer, cells were incubated in 50 μL secondary antibody at 4° C. for 30 min. As a secondary antibody, R-PE-conjugated goat-anti-human IgG (Jackson ImmunoResearch, UK; cat. no. 109⁻¹¹⁶-098) diluted 1:200 in staining buffer was used. Cells were washed twice in staining buffer, resuspended in 30 μL staining buffer containing 0.4% EDTA and the ToPro-3 viability marker (Invitrogen, cat. no. T3605) diluted 1:10,000. Cells were analyzed on an iQue Screener (Intellicyt Corporation, USA). Binding curves were analyzed using non-linear regression (sigmoidal dose-response with variable slope) using GraphPad Prism V9.0.0 software (GraphPad Software, San Diego, CA, USA).

T2 sequence (P02745 23-245 limits assumed, chain 1 of 3): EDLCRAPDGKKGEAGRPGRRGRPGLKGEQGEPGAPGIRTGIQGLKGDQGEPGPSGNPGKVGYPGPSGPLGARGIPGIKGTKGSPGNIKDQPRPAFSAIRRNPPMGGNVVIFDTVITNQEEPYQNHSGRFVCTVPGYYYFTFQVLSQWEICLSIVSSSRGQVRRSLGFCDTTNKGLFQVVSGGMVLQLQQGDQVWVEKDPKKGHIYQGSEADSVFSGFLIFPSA
T2 sequence (P02746 28-253 limits assumed, chain 2 of 3): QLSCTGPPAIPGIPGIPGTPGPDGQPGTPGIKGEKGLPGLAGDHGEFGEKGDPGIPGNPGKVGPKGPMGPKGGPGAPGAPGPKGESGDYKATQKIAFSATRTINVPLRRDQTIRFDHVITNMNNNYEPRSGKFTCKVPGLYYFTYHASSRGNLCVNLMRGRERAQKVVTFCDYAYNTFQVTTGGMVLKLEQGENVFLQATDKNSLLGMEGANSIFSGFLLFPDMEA
T2 sequence (P02747 29-245 limits assumed, chain 3 of 3): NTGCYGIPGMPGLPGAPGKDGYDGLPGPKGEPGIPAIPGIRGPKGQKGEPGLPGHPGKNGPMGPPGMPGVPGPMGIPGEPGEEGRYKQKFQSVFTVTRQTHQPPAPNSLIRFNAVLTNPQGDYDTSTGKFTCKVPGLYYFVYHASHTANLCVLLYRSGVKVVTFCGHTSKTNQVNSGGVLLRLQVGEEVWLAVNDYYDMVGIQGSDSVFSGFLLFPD

B1: bsG1-huCD3-FEALxCD30-MDX060-FEAR (bispecific antibody, human IgG1, kappa, lambda)
heavy 1: not shown
light 1: not shown
heavy 2: QVQLQQWGAGLLKPSETLSLTCAVYGGSFSAYYWSWIRQPPGKGLEWIGDINHGGGTNYNPSLKSRVTISVDTSKNQFSLKLNSVTAADTAVYYCASLTAYWGQGSLVTVSSASTKGPSVFPLAPSSKSTSGGTAALGCLVKDYFPEPVTVSWNSGALTSGVHTFPAVLQSSGLYSLSSVVTVPSSSLGTQTYICNVNHKPSNTKVDKRVEPKSCDKTHTCPPCPAPEFEGGPSVFLFPPKPKDTLMISRTPEVTCVVVAVSHEDPEVKFNWYVDGVEVHNAKTKPREEQYNSTYRVVSVLTVLHQDWLNGKEYKCKVSNKALPAPIEKTISKAKGQPREPQVYTLPPSREEMTKNQVSLTCLVKGFYPSDIAVEWESNGQPENNYKTTPPVLDSDGSFFLYSRLTVDKSRWQQGNVFSCSVMHEALHNHYTQKSLSLSPG
light 2: DIQMTQSPTSLSASVGDRVTITCRASQGISSWLTWYQQKPEKAPKSLIYAASSLQSGVPSRFSGSGSGTDFTLTISSLQPEDFATYYCQQYDSYPITFGQGTRLEIKRTVAAPSVFIFPPSDEQLKSGTASVVCLLNNFYPREAKVQWKVDNALQSGNSQESVTEQDSKDSTYSLSSTLTLSKADYEKHKVYACEVTHQGLSSPVTKSFNRGEC
notes: also called bsG1-huCD3xCD30-MDX060
EC50 (read off the curve) (human CD30 [1]): ~0.4 µg/mL

B2: bsG1-huCD3-FEALxCD30-MDX060-FERR (bispecific antibody, human IgG1, kappa, lambda)
heavy 1: not shown
light 1: not shown
heavy 2: B1 heavy 2 with G231R, A260D
light 2: B1 light 2
notes: Bispecific IgG1 made by controlled Fab-arm exchange; also called bsIgG1-huCD3-FEALxCD30-MDX060-FERR; bsG1-huCD3×CD30-MDX060
EC50 (human CD30 [2]): 0.236 µg/mL
binding result (complement protein C1q): no binding (tested: about 30 µg/mL)
EC50 (human CD30 [3]): 0.2 µg/mL
EC50 (human CD30 [4]): 0.191 µg/mL
EC50 (read off the curve) (human CD30 [5]): ~0.1 µg/mL
